Source: publication doi:10.1101/2021.02.18.431817
Where two headings read alike, the source gives them in different places.

Tests used:
Assay in all cases: EMSA
AtGAPC2 = AtGAPC2 (Arabidopsis thaliana, UniProt Q9FX54 1-338)
GAPDH from rabbit muscle = GAPDH from rabbit muscle (rabbit, UniProt P46406 1-333)
AtGAPC1 [1] = molecular target: T1, AtGAPC1 (Arabidopsis thaliana, UniProt P25858 1-338)
AtGAPC1 [2] = molecular target: T1, AtGAPC1; remark: listed apart in the source

T1 sequence (P25858 whole entry): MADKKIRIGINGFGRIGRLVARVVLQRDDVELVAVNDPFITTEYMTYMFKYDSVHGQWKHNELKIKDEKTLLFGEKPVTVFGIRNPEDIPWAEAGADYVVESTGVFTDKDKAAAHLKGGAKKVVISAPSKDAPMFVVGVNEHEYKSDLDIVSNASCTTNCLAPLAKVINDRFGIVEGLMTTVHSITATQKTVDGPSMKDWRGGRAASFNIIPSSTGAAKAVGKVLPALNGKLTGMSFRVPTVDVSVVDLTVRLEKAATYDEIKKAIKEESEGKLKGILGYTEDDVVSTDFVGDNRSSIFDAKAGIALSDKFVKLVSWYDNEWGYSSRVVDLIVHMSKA
Chain of AtGAPC2 (Q9FX54 whole entry): as the sequence (P25858 whole entry) above, with N61H, I65V, E68D, A92G, Y98F, A227S, L274M counted along it
Chain of GAPDH from rabbit muscle (P46406 whole entry): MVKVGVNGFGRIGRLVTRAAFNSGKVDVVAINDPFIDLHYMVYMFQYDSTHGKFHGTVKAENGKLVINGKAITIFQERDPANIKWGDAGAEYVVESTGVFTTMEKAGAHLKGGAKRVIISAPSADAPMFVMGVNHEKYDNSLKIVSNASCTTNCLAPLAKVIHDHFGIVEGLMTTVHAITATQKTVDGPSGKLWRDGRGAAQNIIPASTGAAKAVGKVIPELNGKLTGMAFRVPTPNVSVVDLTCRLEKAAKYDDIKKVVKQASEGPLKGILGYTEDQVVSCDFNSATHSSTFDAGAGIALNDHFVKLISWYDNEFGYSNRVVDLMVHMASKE

B1: SAP3 M1 (ssRNA)
RNA: ACCAGAUUUUUUUCGCCGGAGUUUGUUUUGAUCCA
B1: binds (AtGAPC2); binds (GAPDH from rabbit muscle); binds (AtGAPC1 [1]).

B2: M2-RNA (consensus) (ssRNA)
RNA: AUAUAUGAGAUUAGGGUUU
B2: binds (AtGAPC1 [2]).

B3: M1-RNA (consensus) (ssRNA)
RNA: AUAUAUUCUCCGGAGAA
B3: binds (AtGAPC1 [2]).

B4: Random RNA (AT5G16470 5'-UTR, mutated M2) (ssRNA)
RNA: UUAGCGUUUUAAUGUUGAGUGAGUAAGUUAAGGGGUU
B4: no binding (AtGAPC1 [2]).
